Measurements from patent US20150037339A1 (Regeneron, published 2015).
Values belong to the binder of their own block, whether it stands above or below them.

Key:
[1] = molecular target: T1, Activin A (homodimer of two inhibin βA subunits; R&D Systems, #338-AC) (human, UniProt P08476 311-426); assay: SPR blocking: 5 nM Activin A + 0.94 nM binder over hActRIIA-hFc surface
T1 construct: Bought protein; also called inhibin-βA dimer
T1 sequence: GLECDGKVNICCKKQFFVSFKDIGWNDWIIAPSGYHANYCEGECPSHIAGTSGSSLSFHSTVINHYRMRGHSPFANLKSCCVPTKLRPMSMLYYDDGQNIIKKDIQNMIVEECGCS
Experimental: (§1) The binding signal (RU) was measured at 150 seconds after the start of the injection, and this signal was subtracted by the measured RU value for a negative control reference surface to determine the specific binding signal.

[2] = molecular target: T1, Activin A (homodimer of two inhibin βA …); assay: SPR blocking: 5 nM Activin A + 60 nM binder over hActRIIA-hFc surface
Experimental: as §1

[3] = molecular target: T1, Activin A (homodimer of two inhibin βA …); assay: SPR blocking: 5 nM Activin A + 0.94 nM binder over hActRIIB-hFc (Control 4) surface
[4] = molecular target: T1, Activin A (homodimer of two inhibin βA …); assay: SPR blocking: 5 nM Activin A + 3.75 nM binder over hActRIIA-hFc surface
Experimental: as §1

[5] = molecular target: T1, Activin A (homodimer of two inhibin βA …); assay: SPR blocking: 5 nM Activin A + 1.88 nM binder over hActRIIB-hFc (Control 4) surface
Experimental: as §1

[6] = molecular target: T1, Activin A (homodimer of two inhibin βA …); assay: SPR blocking: 5 nM Activin A + 30 nM binder over hActRIIA-hFc surface
Experimental: as §1

[7] = molecular target: T1, Activin A (homodimer of two inhibin βA …); assay: SPR blocking: 5 nM Activin A + 3.75 nM binder over hActRIIB-hFc (Control 4) surface
Experimental: as §1

[8] = molecular target: T1, Activin A (homodimer of two inhibin βA …); assay: SPR blocking: 5 nM Activin A + 7.5 nM binder over Follistatin-288 surface
Experimental: as §1

[9] = molecular target: T1, Activin A (homodimer of two inhibin βA …); assay: SPR blocking: 5 nM Activin A + 15 nM binder over Follistatin-288 surface
Experimental: as §1

[10] = molecular target: T1, Activin A (homodimer of two inhibin βA …); assay: SPR blocking: 5 nM Activin A + 0.94 nM binder over Follistatin-288 surface
Experimental: as §1

[11] = molecular target: T1, Activin A (homodimer of two inhibin βA …); assay: SPR blocking: 5 nM Activin A + 0.00 nM binder over hActRIIB-hFc (Control 4) surface
Experimental: as §1

[12] = molecular target: T1, Activin A (homodimer of two inhibin βA …); assay: SPR blocking: 5 nM Activin A + 30 nM binder over Follistatin-288 surface
Experimental: as §1

[13] = molecular target: T1, Activin A (homodimer of two inhibin βA …); assay: SPR blocking: 5 nM Activin A + 3.75 nM binder over Follistatin-288 surface
Experimental: as §1

[14] = molecular target: T1, Activin A (homodimer of two inhibin βA …); assay: SPR blocking: 5 nM Activin A + 1.88 nM binder over Follistatin-288 surface
Experimental: as §1

[15] = molecular target: T1, Activin A (homodimer of two inhibin βA …); assay: SPR blocking: 5 nM Activin A + 0.00 nM binder over hActRIIA-hFc surface
Experimental: as §1

[16] = molecular target: T1, Activin A (homodimer of two inhibin βA …); assay: SPR blocking: 5 nM Activin A + 1.88 nM binder over hActRIIA-hFc surface
Experimental: as §1

[17] = molecular target: T1, Activin A (homodimer of two inhibin βA …); assay: SPR blocking: 5 nM Activin A + 60 nM binder over Follistatin-288 surface
Experimental: as §1

[18] = molecular target: T1, Activin A (homodimer of two inhibin βA …); assay: SPR blocking: 5 nM Activin A + 60 nM binder over hActRIIB-hFc (Control 4) surface
Experimental: as §1

[19] = molecular target: T1, Activin A (homodimer of two inhibin βA …); assay: SPR blocking: 5 nM Activin A + 7.50 nM binder over hActRIIA-hFc surface
Experimental: as §1

[20] = molecular target: T1, Activin A (homodimer of two inhibin βA …); assay: SPR blocking: 5 nM Activin A + 30 nM binder over hActRIIB-hFc (Control 4) surface
Experimental: as §1

[21] = molecular target: T1, Activin A (homodimer of two inhibin βA …); assay: SPR blocking: 5 nM Activin A + 7.50 nM binder over hActRIIB-hFc (Control 4) surface
[22] = molecular target: T1, Activin A (homodimer of two inhibin βA …); assay: SPR blocking: 5 nM Activin A + 15 nM binder over hActRIIB-hFc (Control 4) surface
[23] = molecular target: T1, Activin A (homodimer of two inhibin βA …); assay: SPR blocking: 5 nM Activin A + 0 nM binder over Follistatin-288 surface
Experimental: as §1

[24] = molecular target: T1, Activin A (homodimer of two inhibin βA …); assay: SPR blocking: 5 nM Activin A + 15 nM binder over hActRIIA-hFc surface
Experimental: as §1

Activin B = molecular target: T2, Activin B (human, UniProt P09529 293-407); assay: cell-based or functional assay
T2 chain: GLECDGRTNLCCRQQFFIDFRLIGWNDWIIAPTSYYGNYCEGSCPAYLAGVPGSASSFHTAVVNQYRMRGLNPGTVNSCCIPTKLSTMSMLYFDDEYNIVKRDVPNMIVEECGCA

Activin A = molecular target: T3, Activin A (human, UniProt P08476 311-426); assay: cell-based or functional assay
T3 sequence: T1 sequence

% bound RU w/no inhibitor [1]: 75% | % bound RU w/no inhibitor [2]: 3% | % bound RU w/no inhibitor [3]: 79% | % bound RU w/no inhibitor [4]: 17% | % bound RU w/no inhibitor [5]: 58% | % bound RU w/no inhibitor [6]: 3% | % bound RU w/no inhibitor [7]: 19% | % bound RU w/no inhibitor [8]: 4% | % bound RU w/no inhibitor [9]: 2% | % bound RU w/no inhibitor [10]: 76% | % bound RU w/no inhibitor [11]: 100% | % bound RU w/no inhibitor [12]: 1% | % bound RU w/no inhibitor [13]: 17% | % bound RU w/no inhibitor [14]: 57% | % bound RU w/no inhibitor [15]: 100% | % bound RU w/no inhibitor [16]: 52% | % bound RU w/no inhibitor [17]: 0% | % bound RU w/no inhibitor [18]: 4% | % bound RU w/no inhibitor [19]: 6% | % bound RU w/no inhibitor [20]: 4% | % bound RU w/no inhibitor [21]: 7% | % bound RU w/no inhibitor [22]: 4% | % bound RU w/no inhibitor [23]: 100% | % bound RU w/no inhibitor [24]: 4%
B1: H4H10440P2 (antibody, human IgG4, V domains shown)
VH: EVQLVESGGGVVQPGGSLRLSCAASTFTFDDFAMHWVRQAPGKGLEWVSLITGDGGSTYYADPVKGRFTISRDNSKNSLYLQMNSLRTEDTALYYCVKDWWIAARPDYYYYGMDVWGQGTTVTVSS
VL: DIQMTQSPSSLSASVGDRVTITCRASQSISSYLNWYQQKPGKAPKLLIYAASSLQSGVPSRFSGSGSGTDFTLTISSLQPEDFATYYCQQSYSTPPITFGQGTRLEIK
notes: H4H prefix means human IgG4 Fc

% bound RU w/no inhibitor [1]: 112% | % bound RU w/no inhibitor [2]: 116% | % bound RU w/no inhibitor [3]: 93% | % bound RU w/no inhibitor [4]: 111% | % bound RU w/no inhibitor [5]: 78% | % bound RU w/no inhibitor [6]: 114% | % bound RU w/no inhibitor [7]: 47% | % bound RU w/no inhibitor [8]: 97% | % bound RU w/no inhibitor [9]: 96% | % bound RU w/no inhibitor [10]: 120% | % bound RU w/no inhibitor [11]: 100% | % bound RU w/no inhibitor [12]: 94% | % bound RU w/no inhibitor [13]: 103% | % bound RU w/no inhibitor [14]: 122% | % bound RU w/no inhibitor [15]: 100% | % bound RU w/no inhibitor [16]: 114% | % bound RU w/no inhibitor [17]: 93% | % bound RU w/no inhibitor [18]: 41% | % bound RU w/no inhibitor [19]: 110% | % bound RU w/no inhibitor [20]: 41% | % bound RU w/no inhibitor [21]: 42% | % bound RU w/no inhibitor [22]: 42% | % bound RU w/no inhibitor [23]: 100% | % bound RU w/no inhibitor [24]: 112%
B2: H4H10423P (antibody, human IgG4, V domains shown)
VH: QVQLQQSGPGLLKPSQTLSLTCAISGDSVSSNSAAWSWIRQSPSRGLEWLGRTYYRANWFNDYALSVKSRITINPVTSTNHFSLQLHSVTPEDTAVYYCAREGALGYYFDSWGQGTLVTVSS
VL: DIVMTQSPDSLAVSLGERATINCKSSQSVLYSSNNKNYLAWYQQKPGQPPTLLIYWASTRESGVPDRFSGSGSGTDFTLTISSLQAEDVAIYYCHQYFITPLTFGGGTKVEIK
notes: as for B1

IC50 [M], inhibition of 50 pM Activin B in A204/CAGAx12-Luc Smad2/3-luciferase bioassay (Activin B): 1e-07 M | IC50 [M], inhibition of 100 pM Activin A in A204/CAGAx12-Luc Smad2/3-luciferase bioassay (Activin A): 1.5e-10 M
B3: H4H10433P2 (antibody, human IgG4, V domains shown)
VH: EVQLVESGGGLVQAGRSLRLSCEASGFTFDDYGMHWVRQGPGKGLEWVSGISWNSGNIDYADSVKGRFTISRDNAKTSLYLQMNSLKTDDTALYFCAKDAVGFNWNYFLFDYWGQGTLVTVSS
VL: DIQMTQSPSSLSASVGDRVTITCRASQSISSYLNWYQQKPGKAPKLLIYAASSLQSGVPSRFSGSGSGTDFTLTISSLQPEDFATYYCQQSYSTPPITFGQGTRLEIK
